Data set [1] relates to fungal microbial organism. The settings on record: cited from earlier work.
The next data set concerns Candida species. Particulars: cited from earlier work.
The next data set relates to bacteriocin C7. Put plainly: Resistance to C7 conferred by plasmid-expressed immunity gene (vector selection marker). The format is cell-based. Particulars: gene expressed from plasmid (pBACT2.0, pBACT5.0). The text has this:
The vector used is pBACT2.0 (FIG. 6, SEQ ID NO: 713).
(§1) The vector used is pBACT5.0 (FIG. 5, SEQ ID NO: 712).

The test system of the next data set is ColV. Put plainly: Resistance to ColV conferred by plasmid-expressed immunity gene (vector selection marker). Type of data set: cell-based. The settings on record: gene expressed from plasmid pBACT5.0.
From the text: as §1

Data set [2] deals with pathogenic Gram-positive and Gram-negative bacteria. Particulars: cited from earlier work.
The next data set deals with bacteriocin B17. Put plainly: Resistance to B17 conferred by plasmid-expressed immunity gene (selection on plates containing B17). The format is cell-based, BL21(DE3). The text has this:
We have separated genes from B17 immunity structures and cloned these into vectors behind an inducible promoter (Ptac).
We have separated the genes from B17 immunity structures and cloned them into vectors behind an inducible promoter (Ptac).
We inserted the B17 McbG immunity structure gene and cloned the latter into vectors behind the weak constitutive promoter (P24). A second construct was generated with a P24 LacO hybrid promoter which is an inducible promoter repressed in the presence of lad and active in presence of IPTG.
The BL21(DE3) strain was transformed with vector pMcbG1.0 or pMcbG1.1 (see FIG. 3 or 4). After transformation, transformants were selected on plates containing B17. Isolated colonies were re-grown and the plasmid they contained was analyzed by gel electrophoresis after treatment with relevant restriction enzymes.

Entries after “also recorded” stand apart in the source; their conditions may differ.

In the case of botrycidin AJ1316, the antifungal activities result in data set [1] is “antifungal activities”. “Enterococcus faecalis peptide: Enterococcus faecalis peptide, SEQ ID NO: 1 (WLPPAGLLGRCGRWFRPWLLWLQSGAQYKWLGNLFGLGPK; listed as Enterococcus faecalis)”: in the data set on Candida species, the “neutralizing activity against Candida species” value was “neutralizing activity”.

B1: MccE: immunity to the bacteriocin C7, nucleic acid SEQ ID NO: 700 (protein, listed as Escherichia coli)
chain: MAQKITPSKIVKHARELIIKGIESGDNSFVIFDVDGALERLEHYRCQLKSFFPNSSIAYSYKSNNLAQWCQIISGKGLYAEVCSVDEMNLAKRDGFNRIVFDGPLKKTSELLKAIEIGALIEVDNIDECKRLNELCKLHKLTCRIHLRLSHYYDDNLSRFGLSESEAINLLEMLISKSEYLILDGFHLHVGSNLPNAEKICKAVIQYHELILRYMPDDGTLNLGSGIPADSFSASSDNPTPCPEVFFSSIYDTIKNCFGTVCDKWNYIFEPGRHLVEDFGYFIGKVISTKNRYGVKVAQTNIGINWIPSIRNWDHSFTLFHNHNHISDDKSDEYIIAGFNCFECDCLFPSVILPSNLSDYLFSVRGCGAYDMQTGNQWTRNLYAVYTITNDVVNISRIHRRELDFRKYDVSLTPSGIKVNDEITLLYPALKYAEELYLLINQNKINFIKSMAWPAFVNNISDSVSFIEQSMIDNQNEKALILFIKYKTKIAGVVSFNIIDHANKTAYIGYWLGANFQGKGIVTNAINKLIQEYGDSGVIKRFVIKCIVDNKKSNATALRCGFTLEGVLQKAEILNGVSYDQNIYSKVIG
modifications: gene (1)..(1770) MccE gene
As for B1, the “resistance to bacteriocin C7” value with bacteriocin C7 is “give resistance”.

B2: C-terminal part of MccE: C-terminal portion of MccE, SEQ ID NO: 701 (amino acid SEQ ID NO: 706) (protein)
chain: FRKYDVSLTPSGIKVNDEITLLYPALKYAEELYLLINQNKINFIKSMAWPAFVNNISDSVSFIEQSMIDNQNEKALILFIKYKTKIAGVVSFNIIDHANKTAYIGYWLGANFQGKGIVTNAINKLIQEYGDSGVIKRFVIKCIVDNKKSNATALRCGFTLEGVLQKAEILNGVSYDQNIYSKVIG
modifications: C-terminal part of MccE protein
In the case of B2, the “resistance to bacteriocin C7” value is given as “sufficient to confer resistance; also recorded: give resistance” in the data set with bacteriocin C7 and “give resistance” with bacteriocin C7 (listed as truncated MccE).

B3: Cvi: immunity gene giving resistance to ColV, SEQ ID NO: 709 (protein, listed as Escherichia coli)
chain: MDRKRTKLELLFAFIINATAIYIALAIYDCVFRGKDFLSMHTFCFSALMSAICYFVGDNYYSISDKIKRRSYENSDSK
modifications: gene (1)..(237) Cvi
In the case of B3, the “resistance to ColV” value in the data set with ColV is “give resistance”.

B4: Ent35-MccV: hybrid bacteriocin: N-terminal glycine, Enterocin CRL35, three-glycine linker, C-terminal Microcin V, SEQ ID NO: 3 (protein)
chain: GKYYGNGVSCNKKGCSVDWGRAIGIIGNNSAANLATGGAAGWKSGGGASGRDIAMAIGTLSGQFVAGGIGAAAGGVAGGAIYDYASTHKPNPAMSPSGLGGTIKQKPEGIPSEAWNYAAGRLCNWSPNNLSDVCL
modifications: Hybrid bacteriocin Ent35-MccV
For B4, the antimicrobial activity entry in data set [2] is “displays antimicrobial activity”.

B5: McbE/F: pumps of the B17 immunity structure, construct pSyn2-McbE/F SEQ ID NO: 703 (protein, UniProt P05528 1-241; P05529 1-247, looked up)
Protein McbE: MVTLKMAIIFLMEQIRTPFSLIWTIMSPTVLFFFLHFNEIELHYGDTAWLGKQISWFVGYISFSVVLFNYCLYLVGRRESGFIATFVHNMDGRLLFIRSQLIASLIMSILYVFFFILVVLTGFQASPDYQIVMIILKSIYINAFMMVSLTFMASFRVTFQTASTIYSVLITVCMVSGIVSLKYNEGIVYWINQVNPIAIYSTILQSDQELSLMTIFFYSIMLIISIISALTFKTEPVWSSQ
Protein McbF: MTIPLLEINSLSFSYKVNLPPVFNNLSLKIEQGELIGLLGENPAGKTTLFNLIRGGVSNYEGTLKRNFSGGELVSLPQVINLSGTLRNEEVLDLICCFNKLTKKQAWTDVNHKWNDNFFIRYDKIRRKRTYTVSYGEKRWLIISLMVTLCKNARLFLLDEPTVGIDIQYRMMLWELINKITADGKTVFFSTHIFDELTRDKIPFYMLSKNSINRYSDMSDFIQSNNETTQKRHLLKKLWEQETDTWI
Turning to B5, the “toxicity of expression to the strain” value with bacteriocin B17 (pSyn2-McbE/F under Ptac) was “toxic”.

B6: McbG: immunity to the bacteriocin B17, nucleic acid SEQ ID NO: 699 (protein, listed as Escherichia coli)
chain: MDIIEKRITKRHLSESELSGVNYYNCIFERIQLDNFNFRDCEFEKCRFVNCSIKNLKLNFFKLIDCEFKDCLLQGVNAADIMFPCTFSLVNCDLRFVDFISLRLQKSIFLSCRFRDCLFEETDLRKSDFTGSEFNNTEFRHSDLSHCDFSMTEGLDINPEINRILSIKIPQEAGLKILKRMGVVVGG
modifications: gene (1)..(564) McbG gene
On to B6, for which the “resistance to B17” value with bacteriocin B17 (gene expressed from plasmid, Ptac not induced, weak P24 promoter or pBACT2.0) is “sufficient to give the phenotype of resistance”.

The values are drawn from US11932672B2, “Fermentation process” (Syngulon S.A., priority 2017, dated 2024).
